# According to patent US20200353078A1 (AstraZeneca / MedImmune, published 2020):
# Substitutions are numbered along the chain they refer to.
# T1: Endogenous human IL-33 (human, UniProt O95760 1-270, limits assumed)
# T1 sequence (looked up): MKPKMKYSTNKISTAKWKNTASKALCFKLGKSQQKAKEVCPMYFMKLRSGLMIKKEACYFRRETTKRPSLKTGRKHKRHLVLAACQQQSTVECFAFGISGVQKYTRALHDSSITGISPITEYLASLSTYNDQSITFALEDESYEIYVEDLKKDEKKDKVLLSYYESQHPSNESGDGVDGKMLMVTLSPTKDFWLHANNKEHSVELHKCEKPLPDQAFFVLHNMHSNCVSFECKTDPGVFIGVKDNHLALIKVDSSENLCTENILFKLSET
# T2: Full-length human IL-33 (amino acids 1-270), HEK293-EBNA cell lysate (human, UniProt O95760 1-270)
# T2 sequence (looked up): T1 sequence (looked up)
# T3: His10/Avi Human IL33-01 (human)
# T3 construct: Wild type mature IL-33 with N-terminal 10xHis, Avitag and Factor Xa site; biotinylated by BirA on the Avitag where used biotinylated; reduced form unless treated; also called N-terminal His Avi IL-33; His-Avi human IL-33 wild type
# T3 chain: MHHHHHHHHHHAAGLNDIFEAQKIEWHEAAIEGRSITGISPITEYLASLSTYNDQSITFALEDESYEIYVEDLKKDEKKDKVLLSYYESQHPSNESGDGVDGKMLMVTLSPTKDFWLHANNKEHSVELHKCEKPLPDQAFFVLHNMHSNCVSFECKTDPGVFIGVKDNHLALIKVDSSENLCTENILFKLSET
# T4: His10/Avi Cyno IL-33 (cynomolgus monkey)
# T4 construct: also called Cynomolgus 10His Avitag IL-33; biotinylated His Avi cynomolgus IL-33
# T4 chain: T3 chain with E77K, N94S, H118Q, M146R, H147S, S148F, S177Y, C182G, T183S, T193I
# T5: Human IL-33 Flag®His (human)
# T5 construct: Mature IL-33 with C-terminal FLAG 10xHis tag, from E. coli; biotinylated via free cysteines where used biotinylated; also called Mature Human IL-33_FH; human IL-33 FH
# T5 chain: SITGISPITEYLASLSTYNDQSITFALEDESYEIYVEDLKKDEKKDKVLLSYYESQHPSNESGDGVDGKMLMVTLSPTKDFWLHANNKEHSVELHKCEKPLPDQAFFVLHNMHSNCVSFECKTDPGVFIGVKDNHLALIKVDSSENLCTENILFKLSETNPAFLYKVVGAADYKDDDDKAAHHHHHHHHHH
# T6: Human IL-33 (Axxora/Adipogen AG-40B-0038) (human, UniProt O95760 112-270, limits assumed)
# T6 sequence (looked up): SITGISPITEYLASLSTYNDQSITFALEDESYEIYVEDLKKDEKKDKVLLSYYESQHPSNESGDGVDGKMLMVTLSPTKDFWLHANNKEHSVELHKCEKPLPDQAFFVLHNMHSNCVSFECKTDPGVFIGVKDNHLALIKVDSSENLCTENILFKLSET
# B1: 33_640050 IgG1 (antibody, V domains shown)
# VH: EVQLLESGGGLVQPGGSLRLSCAASGFTFSSYAMSWVRQAPGKGLEWVSAISGSGGSTYYADSVKGRFTISRDNSKNTLYLQMNSLRAEDTAVYYCPRHKFMQLWGGGLRYPFGYWGQGTMVTVSS
# VL: SYVLTQPPSVSVSPGQTASITCSGERMGDKYAAWYQQKPGQSPVLVIYQDTKRPSGIPERFSGSNSGNTATLTISGTQAMDEADYYCQVWDSSTGVFGGGTKVTVL
# notes: IgG1; also called ZZ1F7Q-D10
# B2: H338L293 (SEQ ID NOs 182 and 187) (antibody, V domains shown)
# VH: EVQLLESGGGLVQPGGSLRLSCAASGFTFSSYAMSWVRQAPGKGLEWVSAISPREGWQYYADSVKGRFTISRDNSKNTLYLQMNSLRAEDTAVYYCVRVVAGYFDSWGRGTLVTVSS
# VL: SYELMQPPSVSVSPGQTARITCSGDALPKQYAHWYQQKPGQAPVLVIYKDTERPSGIPERFSGSSSGTTVTLTISGVQAEDEADYYCMSSDPSGASRVFGGGTKLTVL
# notes: IgG; also called H338L293_fgl; H338L293 IgG
# B3: IL330004 IgG1 (antibody, V domains shown)
# VH: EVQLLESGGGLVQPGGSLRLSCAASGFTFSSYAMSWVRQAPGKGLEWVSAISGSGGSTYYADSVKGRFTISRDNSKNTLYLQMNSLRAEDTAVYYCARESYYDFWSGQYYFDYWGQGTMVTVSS
# VL: SYELTQPPSVSVSPGQTASISCSGDKLGDKFASWYQQKPGQSPVLIIYQDRKRPSGIPERFSGSNSGNTATLTISGTQTTDEADYYCQAWDGSLYVFGTGTKLTVL
# notes: Human IgG1, lambda constant
# B4: IL330259 IgG1 (antibody, V domains shown)
# VH: B2 VH with I51S, S52T, R54W, E55Q, W57S, Q58T
# VL: B2 VL with E3V, M5T, V44A, M88Q, S90A, P92S, L105V
# notes: IgG1
# B5: Cynomolgus IL-33 Flag®His (ligand)
# chain: SITGISPITESLASLSTYNDQSITFALEDESYEIYVEDLKKDKKKDKVLLSYYESQHPSSESGDGVDGKMLMVTLSPTKDFWLQANNKEHSVELHKCEKPLPDQAFFVLHNRSFNCVSFECKTDPGVFIGVKDNHLALIKVDYSENLGSENILFKLSEINPAFLYKVVGAADYKDDDDKAAHHHHHHHHHH
# notes: C-terminal FLAG 10xHis tag, E. coli; also called Mature Cynomolugus IL-33; cyno IL-33 FH
# What was measured:
# [1] = target: T1, Endogenous human IL-33; experiment: cell-based or functional assay
# [2] = target: T2, Full-length human IL-33 (amino acids …); experiment: cell-based or functional assay
# [3] = target: T3, His10/Avi Human IL33-01; experiment: HTRF epitope competition, IgG titrated; competitor DyLight labelled 33_640117 IgG; 1 hour
# Method in brief: (§1)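 HTRF competition in which titrated IgG blocks binding of DyLight-labelled 33_640117 IgG (2.5 nM stock) to biotinylated IL-33 detected with streptavidin cryptate: human IL-33-01 at 0.12 nM with 0.75 nM cryptate, cyno IL-33 at 0.24 nM with 1.5 nM cryptate (solution concentrations). Fluorescence read after 1 h and overnight.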
# [4] = target: T4, His10/Avi Cyno IL-33; experiment: as above
# Method in brief: as §1
# [5] = target: T3, His10/Avi Human IL33-01; experiment: HTRF epitope competition, IgG titrated; competitor DyLight labelled 33_640117 IgG; overnight
# Method in brief: as §1
# [6] = target: T3, His10/Avi Human IL33-01; experiment: HTRF competition: purified IgG against FLAG-His human ST2 for biotinylated IL33-01, overnight incubation
# [7] = target: T5, Human IL-33 Flag®His; experiment: HTRF: IL-33FH binding to biotinylated ST2-Fc, IgG titrated, after 18 h pre-incubation of IgG with IL-33
# [8] = target: T6, Human IL-33 (Axxora/Adipogen …); experiment: cell-based or functional assay
# [9] = target: T5, Human IL-33 Flag®His; experiment: cell-based or functional assay
# [10] = target: T5, Human IL-33 Flag®His; experiment: HTRF competition, IgG titrated against biotinylated human ST2-Fc
# Method in brief: (§2)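 Antibody dilution series competed with biotinylated human ST2-Fc (added from a 4 nM mix with streptavidin-XL665) for IL-33 (added from a 1.2 nM mix with anti-FLAG cryptate). Buffer was DPBS with 0.8 M KF and 0.1% BSA. Incubation ran 2 h at RT then 16 h at 4 °C, with TRF read at 620/665 nm.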
# [11] = target: B5; experiment: as above
# Method in brief: as §2
# [12] = target: T5, Human IL-33 Flag®His; experiment: SPR BIAcore 2000, IgG captured on Protein G', IL-33 as analyte, 1:1 Langmuir
# Method: (§3) The binding affinity of purified IgG samples of exemplary binding members to human and cynomolgus IL-33 was determined by surface plasmon resonance using BIAcore 2000 biosensor (BIAcore AB) essentially as described by Karlsson et al., J Immunol Methods 145(1-2):229-40 (1991). In brief, Protein G′ (Sigma Aldrich, P4689) was covalently coupled to the surface of a CM5 sensor chip using standard amine coupling reagents according to manufacturer's instructions (BIAcore). The protein G′ surface was used to capture purified anti-IL-33 antibodies via the Fc domain to provide a surface density of approximately 290 RU per cycle. Human or cynomolgus IL-33 prepared in HBS-EP buffer (BIAcore AB), at a range of concentrations, between 600 nM and 18.75 nM, were passed over the sensor chip surface. The surface was regenerated using two 10 mM Glycine washes of pH 1.7 and pH 1.5 between each injection of antibody. The resulting sensorgrams were evaluated using BIA evaluation 3.1 software and fitted to a 1:1 Langmuir binding model, to provide relative binding data. The binding results (KD, Ka, and Kd) for antibodies IL330002 and IL330004 binding to human or cynomolgus IL-33 are shown in Table 8.
# [13] = target: B5; experiment: as above
# Method: as §3
# [14] = target: T3, His10/Avi Human IL33-01; experiment: HTRF competition: purified IgG against FLAG-His human ST2 for biotinylated IL33-01, 1 hour incubation
# [15] = target: T6, Human IL-33 (Axxora/Adipogen …); experiment: HTRF epitope competition: unlabelled IgG against DyLight labelled IL330101 IgG for biotinylated human IL-33
# [16] = target: T7, 33_640087-7B IgG1; experiment: HTRF: unlabelled test protein competes with biotinylated human IL33-01 for DyLight650 labelled 33_640087-7B IgG
# T7 construct: IgG1
# Method: Human, cyno and mouse IL-33 FLAG® His (described in Example 1 and Table 21), Human IL-1 alpha and IL-1 beta (R&D Systems) (Table 21) or rat IL-33 (GenScript) were tested for inhibition of human IL-33 binding to DyLight650 labelled 33_640087-7B or DyLight650 labelled 33_640237-2B by adding 5 microlitres of each dilution of sample to a 384 well low volume assay plate (Costar, 3673). […] This was followed by the addition of 2.5 microlitres of a solution containing 0.12 nM biotinylated human IL-33-01 combined with 0.75 nM streptavidin cryptate detection (Cisbio International, 610SAKLB). All dilutions were performed in assay buffer containing 0.8 M potassium fluoride (VWR, 26820.236) and 0.1% bovine serum albumin (BSA, PAA, K05-013) in Dulbeccos PBS (Invitrogen, 14190185). Assay plates were incubated for 4 hours at room temperature followed by 18 hours at 4 degrees Celsius and time resolved fluorescence was read at 620 nm and 665 nm emission wavelengths using an EnVision plate reader (Perkin Elmer). Data were analysed by calculating the 665/620 nm ratio followed by the % Delta F values for each sample. The 665/620 nm ratio was used to correct for sample interference using Equation 1. The % Delta F for each sample was then calculated using Equation 2. […] IC₅₀ values were determined using GraphPad Prism software by curve fitting using a four-parameter logistic equation (Equation 4).
# [17] = target: T8, 33_640237-2B IgG1; experiment: HTRF: unlabelled test protein competes with biotinylated human IL33-01 for DyLight650 labelled 33_640237-2B IgG
# T8 construct: IgG1
# Method: Human, cyno and mouse IL-33 FLAG® His (described in Example 1 and Table 21), Human IL-1 alpha and IL-1 beta (R&D Systems) (Table 21) or rat IL-33 (GenScript) were tested for inhibition of human IL-33 binding to DyLight650 labelled 33_640087-7B or DyLight650 labelled 33_640237-2B by adding 5 microlitres of each dilution of sample to a 384 well low volume assay plate (Costar, 3673). […] This was followed by the addition of 2.5 microlitres of a solution containing 0.12 nM biotinylated human IL-33-01 combined with 0.75 nM streptavidin cryptate detection (Cisbio International, 610SAKLB). All dilutions were performed in assay buffer containing 0.8 M potassium fluoride (VWR, 26820.236) and 0.1% bovine serum albumin (BSA, PAA, K05-013) in Dulbeccos PBS (Invitrogen, 14190185). Assay plates were incubated for 4 hours at room temperature followed by 18 hours at 4 degrees Celsius and time resolved fluorescence was read at 620 nm and 665 nm emission wavelengths using an EnVision plate reader (Perkin Elmer). Data were analysed by calculating the 665/620 nm ratio followed by the % Delta F values for each sample. The 665/620 nm ratio was used to correct for sample interference using Equation 1. The % Delta F for each sample was then calculated using Equation 2. The negative control (non-specific binding) was defined by replacing biotinylated human IL-33 combined with streptavidin cryptate detection with streptavidin cryptate detection only. The % Delta F values were subsequently used to calculate % specific binding as described in Equation 3. IC₅₀ values were determined using GraphPad Prism software by curve fitting using a four-parameter logistic equation (Equation 4).
binder,measurement,setting,value
B1,"IC50, Huvec IL-8 release stimulated by human lung lysate",[1],0.032 nM
same,"IC50, Huvec IL-8 assay vs. full length IL-33 cell lysate",[2],0.32 nM
same,IC50,[3],0.3 nM
same,IC50,[4],4.1 nM
same,IC50,[5],1.5 nM
same,IC50 (read off the curve),[6],~0.5 nM
B2,IC50 (read off the curve),[7],~30 nM
B3,"IC50, Huvec p65/RelA NFκB nuclear translocation",[8],12 nM
same,"IC50, human ST2 transfected HeLa NFkB luciferase reporter assay",[9],23 nM
same,IC50,[10],9 nM
same,IC50,[11],170 nM
same,Kd,[12],6 nM
same,koff,[12],0.0011 s⁻¹
same,kon,[12],196000 M⁻¹ s⁻¹
same,Kd,[13],365 nM
same,koff,[13],0.00458 s⁻¹
same,kon,[13],12500 M⁻¹ s⁻¹
same,IC50 (read off the curve),[14],~1 nM
B4,IC50 (read off the curve),[15],~0.1 nM
B5,IC50 (read off the curve),[16],~10 nM
same,IC50 (read off the curve),[17],~200 nM
